Measured values as given in the RNAGym collection of RNA variant scans (doi:10.1073/pnas.2313332121).
Variants at the floor of the assay were thinned out.

B1: TPR 5TU (parent)
chain: GGAUCUUCUCGAUCUAACAAAAAAGACAAAUCUGCCACAAAGCUUGAGAGCAUCUUCGGAUGCAGAGGCGGCAGCCUUCGGUGGCGCGAUAGCGCCAACGUUCUCAACUAUGACACGCAAAACGCGUGCUCCGUUGAAUGGAGUUUAUCAUG

Variants of: B1
Assay: polymerase ribozyme fitness, log enrichment relative to wild type (log ratio); higher = more active; in vitro selection for triplet polymerase activity
Method in brief: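 Fitness measures genotype enrichment against wild-type enrichment on a logarithmic scale, with inverse-variance-weighted averaging of replicates. The logarithm is base 2, and genotypes were kept only with ≥10 input reads and ≥1 read per output in Illumina sequencing. The sequenced libraries came from one triplicate in vitro selection round, including frozen incubation at −7 °C, of PCR-built, transcribed mutant libraries of each subunit of a heterodimeric triplet polymerase ribozyme.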

Variant	polymerase ribozyme fitness (log ratio)
A19C A41C G48C C87U A91C A115C A122U G136C U145A	≤ -4.2
A19G C38U G50A G86A C105A C116A A121U G141C	≤ -4.2
A19C C51U A142C	-0.768
C18G C36G U78A C85A	≤ -4.2
C18U A30U G65U G84U C105U	≤ -4.2
C18G C32G A66U A89G C95G A107U	≤ -4.2
A19G G59U	-0.93
A19C C27U A29C A52C G86C A137G G143U	≤ -4.2
C18G A37C C93A A115G	-4.01
A19C C35G U53A C57A G92A U101C	-4.13
A19G G59U C76A C96U	-1.25
A19G C35A G42C G68C G92A	≤ -4.2
C18G G42A U45A G58U A122C A142G	≤ -4.2
A19C C27G G70A C76U G94U C103U A120U C129A U148C	≤ -4.2
A19G C72G A89G	≤ -4.2
C18U C85G U145A	-1.19
C18U U31C U56G A138U G140A	-4
A19G U90G	≤ -4.2
C18G C57A C93U U135C U145G	-3.11
C18G G83C C85U C96G A115C C116G U134A	≤ -4.2
A19G C32A U56G C57U U82A	≤ -4.2
A19G A29U C95U A122G	≤ -4.2
A19C U44A	-3.87
A19G U53G A120U	-2.57

Variant	polymerase ribozyme fitness (log ratio)
C18U G50C G88C C99U	≤ -4.2
C18U A39G U53C	-3.19
A19G C57U G67U G94A C105A	≤ -4.2
C18G A30U C35A U61G G62U C93U U111G G124A	≤ -4.2
A19G G50A C69U G84U A98U A122G	≤ -4.2
C18G C54U U78C	-2.12
C18U U53A C54U U56A G70A C85U C116U G141C	≤ -4.2
A19C A60C U102G U109G U151G	≤ -4.2
A19U A20C G59A A89U C95U G126C	-0.274
C18G U61A	-0.567
C18U G94A	-1.37
A19C U45A G67A	≤ -4.2
A19G G42U G50U A52U C75U G88U G92C G143A	≤ -4.2
C18G U53A C57U G59C U61A C95G	-3.99
A19G C93A	-3.43
C18U U53G C54A A91G A110G C114G	≤ -4.2
A19C A28C A73G C87U	≤ -4.2
A19G A26C U144G	-2.17
C18U A20U G59A G94A C116G A142G A150G	≤ -4.2
A19G G126C	0.693
C18G C27U A40U C51U A52C C57G G88U C105U	≤ -4.2
C18U A52U	-1.92
C18G A49U A119G	-1.83
A19C A20U U61C C76A U82C A91U U130G U146C	≤ -4.2

Variant	polymerase ribozyme fitness (log ratio)
C18U C96U	-0.659
C18G C79G	-3.9
A19C A22G U31G C38U A107U G117A	-4.16
C18G A120C	-1.21
A19G A28U A40C A60C G71U C75A G86U	≤ -4.2
A19G A22G U31G A41U U44A A60C G81A G83C G84A U146A	≤ -4.2
C18U A29C U78G G92A A147C	≤ -4.2
A19G U33C A41C A91U C93A A97C	≤ -4.2
A19C U61A C103A	≤ -4.2
A19C A29U A39U A60U C76U C95U U144A	≤ -4.2
A19G A23G G67C C87U	≤ -4.2
A19C A21G C57A G58U C72U C85U C103U U134C	-0.327
A19C C43U U61G A64C U77G C85U A110U C116G	≤ -4.2
A19C C87U A97G A137U A142C	-4.12
A19G G46C A107U A120C C129U	≤ -4.2
A19C G65C C69G C85U C87G U102G A121G G124A U139G	≤ -4.2
C18U C131A	-2.6
C18G C27U A37G A47C U55A G65U C85U	-4.19
A19G C93A G140A	≤ -4.2
A19C G70C C103G	≤ -4.2
A19C A20C A40G U55C G71U G84A A138U U139A	≤ -4.2
A19G A98U A115U A120U	-2.62
C18U A29U A52C C93A C125G U144A A147U	≤ -4.2
A19C C51U A52G G84U A89U G124U G141U	-1.23

Variant	polymerase ribozyme fitness (log ratio)
A19C A24G C36U C57A U111G A121G	≤ -4.2
A19C A29C U33G C87G C108U U135A U148A	≤ -4.2
C18U U56A G83A U102A U144A	-3.72
A19C G48C C51A G86U G128U	≤ -4.2
A19G C87G	≤ -4.2
C18U C93U C99U A150G	-2.85
C18G A39G A40U G67A U90C A97G C99U	≤ -4.2
C18U A47G A52U G68U C79A C93U C99A G141C A142G G143U	≤ -4.2
C18U G84A U102A C123G	-2.76
A19G A97U	-0.98
C18U A22U U53G C96A	-3.13
C18U C57U G86A	-1.67
A19C C51A C75A C93A G117C	≤ -4.2
A19G U82G G94A C96U A97U G124U	-2.53
C18G G34U C57U C96U A147U	-2.53
A19C C57A A119G G128A	-4.12
A19C C87U	-0.722
C18U C36A	-4.01
C18U U53A C95U C99G	-3.76
A19G U109C G141A	-2.85
C18U C93U G133U	≤ -4.2
C18U C38U A39C G92U C103U	≤ -4.2
A19G A47C C57A C96U U101G C123U U145A	-0.877
C18G G42A C54U G94A	≤ -4.2

Variant	polymerase ribozyme fitness (log ratio)
C18U A19U A64G A89G A119U U146C	≤ -4.2
C18U U55A C57G A66U U82G G94C A113U	≤ -4.2
C18G C76G C85A U145A	≤ -4.2
A19C C85U	-0.536
C18U A41G C51U A115C G140U	-3.82
A19G A49C C54A G68A C93A C95A C103U G124A	≤ -4.2
C18U U31G A41G U56A C63U C95U C96G U144C	-2.53
A19G A39U U55G A121C	-2.95
A19G A47G G48A	-3.23
A19C C93U	0.111
A19C C93G	-2.84
A19C G83U C87U	-0.445
C18U C51U C96A G126C C132U	-2.04
A19C U31C	1.56
C18U U53A G74C A107U U135C G140C	≤ -4.2
A19C G58C C95U G140U	-3.88
A19G G50U A73G C85U	-0.781
C18G C54U U56A A73G A91G	-3.27
A19G A40U C57A U61A G100U G136U G141C	≤ -4.2
C18G C93U A98G A120C G141U	0.17
A19C U56C C96U G133C	-2.22
A19C G46A G62A G94A C95A	≤ -4.2
C18U U55A	-1.49
C18U A39G U53C C57G C75A U139G A150C	≤ -4.2

Variant	polymerase ribozyme fitness (log ratio)
C18G C35U C75U C95U A120G U134C	-2.68
C18G C32G C35U G86U C105G A115C	-4
C18G A37C C96G A106G	-1.07
C18U C38G A40G U61A G81C C96A C116G A119U	≤ -4.2
C18U A21C G141A	0.0565
A19C A150U	2.88
A19C A150G	-0.495
A19C G62C G84A A89G G117A	-2.57
A19C C38A C57A G80U C95U C116G	-1.83
A19G G84C A115U A121G	-3.97
C18G U146C	-0.0606
C18G C32U C43U A89C	≤ -4.2
A19C A40U G46A	-0.204
A19G A91U	≤ -4.2
C18U C27U A28C G74U G100U U144G G152C	≤ -4.2
A19G A26U C85A A97C A119U C123U	≤ -4.2
A19C U56A	0.406
A19G C54G	-1.84
C18U C38G A40G U61A G81C C96A U146C	≤ -4.2
C18U G34U G70A C85U C87U A91C G117A	≤ -4.2
C18U G140C	-4.17
C18G G80C	≤ -4.2
C18U U90G	≤ -4.2
C18G C43A A52C G71A A91U C95G U146C	≤ -4.2

Variant	polymerase ribozyme fitness (log ratio)
C18G C95U	0.206
A19C G86C C99U	-2.28
A19C A66C G94A U134G	≤ -4.2
A19G U33C A49C C54U G81A C87U	≤ -4.2
A19C C96U A106G A120C	0.311
A19C A52G G88A A106G U139A	≤ -4.2
C18U C96G U127C G143A	-4.17
C18U G80U U148C	-3.99
A19G U109G U139C U144C U148C	-4.14
C18U A29U G68A C85U	≤ -4.2
C18U A41G C85A U134A	-3.02
A19G G50A G83C G86U C96U	≤ -4.2
C18G C93U G143U	-3.08
C18U U55A G81C C93U C105U C118G	-1.85
A19C U53A G92A	-3.8
C18U U61G A91C C93G C96U C99U A147U	≤ -4.2
A19G A41C G42C A49C U90C U127A	≤ -4.2
C18G U45A A121U	-2.73
A19G A40C C93U	-0.92
A19C A39U U53G A89U U104G C108A G136A A138C U145A	≤ -4.2
C18G U31C G59C G81A C116G A138G	-4.15
C18G G92U U130G	-4.01
C18U A142C	-0.999
